The results in this text go back to article PMC4270787 (PLoS ONE, 2014).

Common to all, as to test: radioligand binding
Assay [1] addresses acetylcholine-binding protein from Aplysia californica (A. californica).
The target in assay [2] is T1, T. californica muscle-type nicotinic acetylcholine receptor (T. californica, UniProt P02710 25-461; P02712 25-493; P02714 18-506; P02718 22-522).
T1 construct: also called T. californica nAChR; Torpedo nAChR
To be noted: one partner purified.

Assay [3] concerns the target T2, human neuronal α7 nicotinic acetylcholine receptor (human, UniProt P36544 23-502).
T2 construct: also called human α7 nAChR; α7 nAChR
To be noted: one partner purified.

The target of assay [4] is T3, acetylcholine-binding protein from L. stagnalis (L. stagnalis, UniProt P58154 20-229).
T3 construct: also called L. stagnalis AChBP
The note with it: both partners purified.

For orientation: IC50 means the concentration that gives 50% inhibition. Read a low IC50 as inhibition by little substance. Take “PLA2 CM-II from N. kaouthia venom (from UniProt P00596 28-146) (enzyme)”: the IC50 in assay [1] was greater than 100 µM.
Molecule “PLA2 vurtoxin from V. ursinii venom (from UniProt F8QN54 17-138) (enzyme)” showed an IC50 in assay [1] greater than 30 µM.

B1: PLA2 Vur-PL2 from V. ursinii venom (enzyme)
chain: NLYQFGKMIRYKTGKSALLSYSDYGCYCGWGGQGKPKDATDRCCFVHDCCYGRVNGCDPKLTIYSYSFENGDIVCGGDDSCKRAVCECDRVAAICFGENLNTYDKKYKNYPSSQCTETEQC
With B1, the figures for the half-inhibitory concentration (IC50) in assay [2], in assay [3] and in assay [4] were greater than 100000 nM, 29 ± 2 µM and greater than 30 µM, respectively.

B2: PLA2 vurtoxin from V. ursinii venom (enzyme)
chain: SLLEFGMMILEETGKNPLTSYSFYGCYCGVGGKGTPKDATDRCCFVHDCCYGNLPDCNPKIDRYKYHRKNGAIVCGKGTSCENRICECDRAAAICFRKNLKTYNHIYKYYPDFLCKKESEKC
As to B2, the IC50 in assay [2] was 260 ± 20 nM; in assay [3], 14 ± 5 µM; in assay [4], greater than 30 µM.

B3: PLA2 CM-II from N. kaouthia venom (enzyme)
chain: NLYQFKNMIQCTVPNRSWWDFADYGCYCGRGGSGTPVDDLDRCCQVHDNCYNEAEKISRCWPYFKTYSYECSQGTLTCKGDNDACAAAVCDCDRLAAICFAGAPYNNNNYNIDLKARCQ
Turning to B3, the IC50 amounted to 1200 ± 100 nM in assay [2], 3.2 ± 0.3 µM in assay [3] and 1 ± 0.03 µM in assay [4].
